One block for each molecule: values may come before it.
Experiments:
[1] = molecular target: T cell surface antigens CTLA4 and PD-1; test: flow cytometry, PHA-stimulated CD4+ T cells; Ab 100 nM
PD-1-mFc [2] = molecular target: T1, PD-1-mFc (mouse, UniProt Q15116 25-170 (human entry), limits assumed); test: indirect ELISA, coat PD-1-mFc 0.5 ug/mL
T1 construct: extracellular domain; a TEV site is implied; not shown: mouse IgG Fc fragment (mFc)
Procedure: TMB (Neogen, 308177) was added to react for 5 mins. The absorbance was read at the wavelength of 450 nm in a microplate reader.

PD-1-mFc [3] = molecular target: T1, PD-1-mFc; test: competition ELISA, coat PD-1-mFc 0.2 ug/mL, PDL1-hFc 2 ug/ml
[4] = molecular target: T2, PD-1 antigen obtained by digesting PD-1-mFc with TEV protease (UniProt Q15116 25-170, limits assumed, biotin-labelled (sites not given)); test: BLI (Fortebio), biotin-PD-1 on SA sensor, antibody in solution
T2 construct: extracellular domain; also called antigen PD-1
T2 sequence (Q15116 25-170 limits assumed): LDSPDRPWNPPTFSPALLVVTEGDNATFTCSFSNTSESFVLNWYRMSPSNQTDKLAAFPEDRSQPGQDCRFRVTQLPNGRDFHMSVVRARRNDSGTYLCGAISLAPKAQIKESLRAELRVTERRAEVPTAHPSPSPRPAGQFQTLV
Procedure: The antibodies were diluted with PBST from 200 nM down three fold each time. The dissociation was also in PBST.

[5] = molecular target: T3, CTLA4 antigen obtained by digesting CTLA4-mFc with TEV protease (human, UniProt P16410 36-161); test: BLI (Fortebio), antibody amine-coupled on AR2G sensor, CTLA4 in solution
T3 construct: extracellular domain; Biotin-labelled when immobilised on SA sensors; also called CTLA4 protein; antigen CTLA4
T3 sequence (P16410 36-161): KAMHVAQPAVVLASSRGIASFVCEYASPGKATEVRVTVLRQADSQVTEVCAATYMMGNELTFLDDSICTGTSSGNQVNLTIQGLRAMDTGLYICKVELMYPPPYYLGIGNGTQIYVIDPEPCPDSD
Procedure: 1.2 Antibody 4G10 was immobilized to AR2GBiosensors by amine coupling method, and then blocked with ethanolamine and equilibrating in PBST, and then bound to CTLA4. CTLA4 was double gradient diluted with PB ST to the concentrations of 268.1, 134.1, 67, 33.5, 16.8, 8.38, 4.19, and 0 nM. The dissociation was also in PBST.

T1 sequence (Q15116 25-170 limits assumed): as the sequence (Q15116 25-170 limits assumed) above

MFI (fluorescence intensity) [1]: 10.2
Molecule: hIgG (antibody)

EC50 (PD-1-mFc [2]): 0.175 nM | EC50 (PD-1-mFc [3]): 0.853 nM | Kd [4]: 0.0181 nM | koff [4]: 6.12e-06 s⁻¹ | kon [4]: 338000 M⁻¹ s⁻¹
B1: monoclonal antibody 14C12 (antibody, V domains shown)
VH: EVKLVESGGGLVKPGGSLKLSCAASGFAFSSYDMSWVRQTPEKRLEWVATISGGGRYTYYPDSVKGRFTISRDNARNTLYLQMSSLRSEDTALYYCANRYGEAWFAYWGQGTLVTVSA
VL: DIKMTQSPSSMYASLGERVTFTCKASQDINTYLSWFQQKPGKSPKTLIYRANRLVDGVPSRFSGSGSGQDYSLTISSLEYEDMGIYYCLQYDEFPLTFGAGTKLEL
notes: Mouse hybridoma antibody; also called antibody secreted by hybridoma LT003 (PD-1-14C12)

Kd [5]: 0.301 nM | koff [5]: 0.000114 s⁻¹ | kon [5]: 378000 M⁻¹ s⁻¹
B2: monoclonal antibody 4G10 (antibody, V domains shown)
VH: QVKLQESGPELVKPGASMKISCKASGYSFTGYTMNWVKQSHGKNLEWIGLINPYNNITNYNQKFMGKATFTVDKSSSTAYMELLRLTSEDSGVYFCARLDYRSYWGQGTLVTVSA
VL: QAVVTQESALTTSPGETVTLTCRSSTGAVTTSNFANWVQEKPDHLFTSLIGGTNNRAPGVPARFSGSLIGDKAALTITGAQTEDEAIYFCALWYSNHWVFGGGTKLTVLG
notes: Mouse hybridoma antibody purified on protein A; also called antibody secreted by hybridoma LT002 (CTLA4-4G10)

Source: patent publication US20190185569A1 (published 2019)
